The target of the assay is T1, Thermus thermophilus wild type SlyD polypeptide (Thermus thermophilus).
T1 sequence: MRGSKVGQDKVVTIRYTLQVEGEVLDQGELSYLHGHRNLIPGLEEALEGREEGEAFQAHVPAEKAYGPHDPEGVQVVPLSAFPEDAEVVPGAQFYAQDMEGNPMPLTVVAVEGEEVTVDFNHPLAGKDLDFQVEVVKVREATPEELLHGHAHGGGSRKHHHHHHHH
Kind of assay: ELISA, clone culture supernatant. For orientation: An ELISA detects its analyte on a solid surface through an enzyme-linked reagent.

The results in this text go back to patent US20160137728A1.

B1: MAb<h-IGF-1>M-11.09.15 (antibody, V domains shown)
VH: QVQLQQSGAELVRPGSSVKISCKASGYAFSNLWMNWVKQRPGQGLEWIGQIYPGDGDTNYYGDFKGKATLTADSSSSTAYMQLSRLTSEDSAVYFCARIGYYGMDYWGQGTSVTVSS
VL: DVVLTQTPLSLPVNIGDEASISCKSTKSLLSSDGLTYLDWYLQKPGQSPQVLIYLVSNRFSGVPDRFSGSGSGTDFTLKISRVEAEDLGVYYCFQSNYLPTFGAGTKLELK
B1 registered a reactivity [mE] of 32 mE.
